Results on 13 molecules are retold here after US20260234655A1, “Nuclear Targeted DNA Delivery and Compositions for Use in Practicing the Same” (Seawolf Therapeutics, Inc., priority 2022, published 2026).

Sequences and labels used below:
B1: DTS with 4 repeats of UAS: DNA with GFP cassette and DTS of 4 UAS repeats (nucleic acid)
DNA: CGGAGGACTGTCCTCCGTGAGTCCTAGCGGAGGACTGTCCTCCGTCTTCACAGGCGGAGGACTGTCCTCCGTAGGGTTCCTCGGAGGACTGTCCTCCG
modifications: DNA nuclear targeting sequence within DNA carrying a GFP cassette, further chemistry not given here
notes: DNA with GFP cassette and DTS of 4 UAS repeats
B2: DTS with 3 repeats of UAS: DNA with GFP cassette and DTS of 3 UAS repeats (nucleic acid)
DNA: CGGAGGACTGTCCTCCGTGAGTCCTAGCGGAGGACTGTCCTCCGTCTTCACAGGCGGAGGACTGTCCTCCG
modifications: DNA nuclear targeting sequence within DNA carrying a GFP cassette, further chemistry not given here
notes: DNA with GFP cassette and DTS of 3 UAS repeats
B3: DTS with 7 repeats of UAS: DNA with GFP cassette and DTS of 7 UAS repeats (nucleic acid)
DNA: CGGAGGACTGTCCTCCGTGAGTCCTAGCGGAGGACTGTCCTCCGTCTTCACAGGCGGAGGACTGTCCTCCGTAGGGTTCCTCGGAGGACTGTCCTCCGACACTAGAGTCGGAGGACTGTCCTCCGGATAGTATCACGGAGGACTGTCCTCCGAGCAAACGAACGGAGGACTGTCCTCCG
B4: DTS with 5 repeats of UAS: DNA with GFP cassette and DTS of 5 UAS repeats (nucleic acid)
DNA: CGGAGGACTGTCCTCCGTGAGTCCTAGCGGAGGACTGTCCTCCGTCTTCACAGGCGGAGGACTGTCCTCCGTAGGGTTCCTCGGAGGACTGTCCTCCGACACTAGAGTCGGAGGACTGTCCTCCG
modifications: DNA nuclear targeting sequence within DNA carrying a GFP cassette, further chemistry not given here
notes: DNA with GFP cassette and DTS of 5 UAS repeats
B5: DTS with 10 repeats of UAS: DNA with GFP cassette and DTS of 10 UAS repeats (nucleic acid)
DNA: CGGAGGACTGTCCTCCGTGAGTCCTAGCGGAGGACTGTCCTCCGTCTTCACAGGCGGAGGACTGTCCTCCGTAGGGTTCCTCGGAGGACTGTCCTCCGACACTAGAGTCGGAGGACTGTCCTCCGGATAGTATCACGGAGGACTGTCCTCCGAATGGACTAACGGAGGACTGTCCTCCGAGCAAACGAACGGAGGACTGTCCTCCGTACACCGATCCGGAGGACTGTCCTCCGGCGCTCGGCACGGAGGACTGTCCTCCG
B6: DTS with 2 repeats of TetO: DNA with GFP cassette and DTS of 2 TetO repeats (nucleic acid)
DNA: CTCGAGTTTACTCCCTATCAGTGATAGAGAACGTATGTCGAGTTTACTCCCTATCAGTGATAGAGAACGATGTCGAGTTTAC
modifications: DNA nuclear targeting sequence within DNA carrying a GFP cassette, further chemistry not given here
notes: DNA with GFP cassette and DTS of 2 TetO repeats
B7: DTS with 7 repeats of TetO: DNA with GFP cassette and DTS of 7 TetO repeats (nucleic acid)
DNA: CTCGAGTTTACTCCCTATCAGTGATAGAGAACGTATGTCGAGTTTACTCCCTATCAGTGATAGAGAACGATGTCGAGTTTACTCCCTATCAGTGATAGAGAACGTATGTCGAGTTTACTCCCTATCAGTGATAGAGAACGTATGTCGAGTTTACTCCCTATCAGTGATAGAGAACGTATGTCGAGTTTATCCCTATCAGTGATAGAGAACGTATGTCGAGTTTACTCCCTATCAGTGATAGAGAACGTATGTCGAGGTAGGCGTGTACGGTGGGAGGCCTATATAAGCAGAGCTCGTTTAGTGAACCGTCAGATCGCCTGGAGAATTCA
B8: DTS with 3 repeats of TetO: DNA with GFP cassette and DTS of 3 TetO repeats (nucleic acid)
DNA: CTCGAGTTTACTCCCTATCAGTGATAGAGAACGTATGTCGAGTTTACTCCCTATCAGTGATAGAGAACGATGTCGAGTTTACTCCCTATCAGTGATAGAGAACGTATGTCGAGTTTAC
modifications: DNA nuclear targeting sequence within DNA carrying a GFP cassette, further chemistry not given here
notes: DNA with GFP cassette and DTS of 3 TetO repeats
B9: DTS with 4 repeats of TetO: DNA with GFP cassette and DTS of 4 TetO repeats (nucleic acid)
DNA: CTCGAGTTTACTCCCTATCAGTGATAGAGAACGTATGTCGAGTTTACTCCCTATCAGTGATAGAGAACGATGTCGAGTTTACTCCCTATCAGTGATAGAGAACGTATGTCGAGTTTACTCCCTATCAGTGATAGAGAACGTATGTCGAGTTTAC
B10: DTS with 5 repeats of TetO: DNA with GFP cassette and DTS of 5 TetO repeats (nucleic acid)
DNA: CTCGAGTTTACTCCCTATCAGTGATAGAGAACGTATGTCGAGTTTACTCCCTATCAGTGATAGAGAACGATGTCGAGTTTACTCCCTATCAGTGATAGAGAACGTATGTCGAGTTTACTCCCTATCAGTGATAGAGAACGTATGTCGAGTTTACTCCCTATCAGTGATAGAGAACGTATGTCGAGTTTA
B11: DTS with 6 repeats of TetO: DNA with GFP cassette and DTS of 6 TetO repeats (nucleic acid)
DNA: CTCGAGTTTACTCCCTATCAGTGATAGAGAACGTATGTCGAGTTTACTCCCTATCAGTGATAGAGAACGATGTCGAGTTTACTCCCTATCAGTGATAGAGAACGTATGTCGAGTTTACTCCCTATCAGTGATAGAGAACGTATGTCGAGTTTACTCCCTATCAGTGATAGAGAACGTATGTCGAGTTTATCCCTATCAGTGATAGAGAACGTATGTCGAGTTTAC

The subject of the first data set is growth-arrested HepG2 cells. The data set can be described thus: Number of TFBS repeats in the DTS (TetO, UAS), co-transfection with TetR or Gal4 mRNA in growth-arrested HepG2 cells; GFP intensity. In kind it is cell-based. The note with it: growth-arrested HepG2 cells, 12 h. On the procedure:
Co-transfection of DNA and mRNA into HepG2 cells. HepG2 cells were purchased from ATCC and grown in complete media (EMEM+10% fetal bovine serum, ATCC). For co-transfection experiments, cells were seeded at confluence onto collagen coated 384-well plates and cultured for 48 hours in complete media followed by 48 hours in complete media supplemented with […] aphidicolin to prevent cell division. After the outgrowth period, cells were transfected using Lipofectamine3000 (Invitrogen) transfection reagent according to the manufacturer's instructions. RNA and DNA were independently complexed with Lipofectamine3000 in Opti-MEM I (Gibco) for 15 minutes. RNA and DNA complexes were then mixed, followed by 1:10 dilution into complete media supplemented with 0.75 μM aphidicolin. Media was aspirated from the plated HepG2 cells and replaced with the transfection mix. DNA was transfected from 17.5 ng to 4.38 ng per well. mRNA was transfected from 70 ng to 0.07 ng per well. Cells were live-imaged using a 4× objective with a GFP filter set and brightfield at 3-hour intervals for 72 hours using a Cytation5 automated microscope (Agilent) attached to a BioSpa8 automated incubator (Agilent). Gen5IPrime (Agilent) image analysis software was used to quantify the number of GFP cells and GFP Intensity per well.
In this study, DNAs were engineered to comprise DTSs having different numbers of TFBS repeats for TetR or Gal4, and the impact of multiple sequences assessed in vitro by co-transfection of mRNA encoding TetR or Gal4 NTF. Growth-arrested HepG2 cells were co-transfected with mRNA encoding the NTF protein along with DNA comprising a cognate DTS and a GFP expression cassette. Each NTF mRNA was paired with a cognate DNA in the co-transfection, where the cognate DNA comprised a DTS with varying numbers of cognate TFBS repeats. For example, the TetR mRNA was paired with DNAs comprising DTSs with 2, 3, 4, 5, 6, or 7 repeats of a TetR TFBS (e.g., TetO). Twenty-four hours after transfection, GFP expression was assessed by measuring GFP fluorescence intensity.
The increase in gene expression appeared to increase with the number of TetO repeats in the DTS, with 7 repeats producing an increase in GFP expression greater than 10-fold at the highest amount of RNA (e.g., 17.5 ng RNA) compared to DNA alone (FIG. 16A).
The Gal4 mRNA was paired with DNAs comprising DTSs with 1, 2, 3, 4, 5, 7, or 10 repeats of a Gal4 TFBS (e.g., UAS). Twelve hours after transfection, GFP expression was assessed by measuring GFP fluorescence intensity. […] The increase in gene expression appeared to increase with the number of UAS repeats in the DTS up to 5 repeats, while the increase in gene expression appeared saturable as 5, 7, and 10 repeats performed similarly (FIG. 16B). Co-transfection of Gal4 mRNA and DNA comprising a DTS of 5, 7, or 10 repeats produced an increase in GFP expression greater than 10-fold at the highest amount of RNA (e.g., 17.5 ng RNA) compared to DNA alone (e.g., 0 ng RNA) in HepG2 cells (FIG. 16B).
As to “DTS with 1 repeat of UAS: DNA with GFP cassette and DTS of 1 UAS (Gal4 TFBS) (DNA ACACTAGAGTCGGAGGACTGTCCTCCGTGAGTCCTAG; DNA nuclear targeting sequence within DNA carrying a GFP cassette, further chemistry not given here)”, the “gene expression over DNA alone on co-transfection with Gal4 mRNA” value is “did not substantially increase gene expression”. The same measure, in the same setting: to “DTS with 2 repeats of UAS: DNA with GFP cassette and DTS of 2 UAS repeats (DNA CGGAGGACTGTCCTCCGTGAGTCCTAGCGGAGGACTGTCCTCCG; DNA nuclear targeting sequence within DNA carrying a GFP cassette, further chemistry not given here)” belongs “did not substantially increase gene expression”. Still for that read-out and setting: to B1 belongs “did substantially increase gene expression”; to B2, “did substantially increase gene expression”; to B3, “did substantially increase gene expression”. Still for that read-out and setting: to B4 belongs “did substantially increase gene expression”; to B5, “did substantially increase gene expression”.

Staying with this data set, now noted: growth-arrested HepG2 cells, 24 h.
Regarding B6, the “gene expression over DNA alone on co-transfection with TetR mRNA” value is “did not substantially increase gene expression”.

Consider B7, for which the “gene expression over DNA alone on co-transfection with TetR mRNA” value was “did substantially increase gene expression”. Same read-out and setting: to B8 belongs “did substantially increase gene expression”; to B9, “did substantially increase gene expression”. On the same count and under the same terms, then B10, with “did substantially increase gene expression”. Same read-out and setting: then B11, with “did substantially increase gene expression”.

The same data set, now with this note: highest amount of RNA (17.5 ng RNA), 24 h.
With B7, the “increase in GFP expression compared to DNA alone on co-transfection with TetR mRNA” value was “greater than 10 fold”.
